Data reported in patent US20210301005A1 (Genentech, published 2021).
Read-outs that look alike come from different tables or passages of the source.

Legend:
[1] = target: T1, human TGFβ2, mature receptor-binding domain (human, UniProt P09858 303-414 (pig entry), The mature TGFβ2 is a disulfide-linked homodimer of this 112-residue chain. The 4A11 epitope spans both monomers (p-1207).); experiment: SPR
T1 construct: Peprotech; also called TGFb2
T1 sequence: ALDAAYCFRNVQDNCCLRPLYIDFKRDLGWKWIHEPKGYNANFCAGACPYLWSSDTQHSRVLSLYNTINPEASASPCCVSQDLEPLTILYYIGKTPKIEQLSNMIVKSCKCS

[2] = target: T2, human TGFβ3, mature dimeric form (human, UniProt P10600 301-412); experiment: SPR
T2 construct: Peprotech, expressed in E. coli; also called TGFb3
T2 sequence: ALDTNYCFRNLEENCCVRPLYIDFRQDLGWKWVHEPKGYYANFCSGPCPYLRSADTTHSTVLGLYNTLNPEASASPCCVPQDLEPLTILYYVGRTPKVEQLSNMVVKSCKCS

[3] = target: T1, human TGFβ2, mature receptor-binding …; experiment: BIAcore T200
Protocol: (§1) For binding affinity determinations of all humanized 2A10 antibodies, Surface Plasmon Resonance (SPR) measurement with a BIAcore™-T200 instrument was used. Briefly, series S CM5 biosensor chip with protein A was first applied to capture each humanized 2A10 variant to achieve approximately 100 response units (RU) on each flow cell, following by injection of 3-fold serial dilutions of human TGFβ1, TGFβ2 or TGFβ3 (0.02 nM to 5 nM) in HBS-EP buffer (0.01M HEPES pH 7.4, 0.15M NaCl, 3 mM EDTA and 0.05% v/v surfactant P20) at 25° C. with a flow rate of 50 μl/min for kinetics measurement. Association rates (ko.) and dissociation rates (koff) were calculated using a simple one-to-one Langmuir binding model (BIAcore T200 evaluation software version 2.0) to determine the equilibrium dissociation constant (KD), which was calculated as the ratio koff/kₒₙ.
(§2) Binding affinity determinations of all humanized 4A11 antibodies were performed using SPR measurement with a BIAcore™-T200 instrument, as described above in Example 6 ([…]).

[4] = target: T2, human TGFβ3, mature dimeric form; experiment: BIAcore T200
Protocol: as §1, §2

[5] = target: T3, human TGFβ1, mature receptor-binding domain (human, UniProt P01137 279-390); experiment: BIAcore T200
T3 construct: Peprotech; also called TGFb1
Protocol: as §1, §2

[6] = target: T1, human TGFβ2, mature receptor-binding …; experiment: BIAcore T200; remark: listed apart in the source
Protocol: as §1, §2

[7] = target: T2, human TGFβ3, mature dimeric form; experiment: BIAcore T200; remark: listed apart in the source
Protocol: as §1, §2

[8] = target: T1, human TGFβ2, mature receptor-binding …; experiment: cell-based or functional assay
[9] = target: T2, human TGFβ3, mature dimeric form; experiment: cell-based or functional assay
[10] = target: T1, human TGFβ2, mature receptor-binding …; experiment: Biacore SPR
[11] = target: T4, mouse TGFβ2, mature peptide (mouse, UniProt P27090 303-414); experiment: Biacore SPR
T4 construct: mature
T4 sequence (looked up): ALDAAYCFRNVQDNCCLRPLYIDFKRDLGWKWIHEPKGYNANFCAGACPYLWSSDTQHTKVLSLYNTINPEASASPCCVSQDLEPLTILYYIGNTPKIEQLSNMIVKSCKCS

[12] = target: T3, human TGFβ1, mature receptor-binding …; experiment: cell-based or functional assay
[13] = target: T1, human TGFβ2, mature receptor-binding …; experiment: cell-based or functional assay; remark: listed apart in the source
[14] = target: T2, human TGFβ3, mature dimeric form; experiment: cell-based or functional assay; remark: listed apart in the source
[15] = target: T3, human TGFβ1, mature receptor-binding …; experiment: cell-based or functional assay; remark: listed apart in the source
[16] = target: T1, human TGFβ2, mature receptor-binding …; experiment: cell-based or functional assay; remark: listed apart in the source
[17] = target: T2, human TGFβ3, mature dimeric form; experiment: cell-based or functional assay; remark: listed apart in the source
[18] = target: T3, human TGFβ1, mature receptor-binding …; experiment: cell-based or functional assay; remark: listed apart in the source
[19] = target: T1, human TGFβ2, mature receptor-binding …; experiment: cell-based or functional assay; remark: listed apart in the source
[20] = target: T2, human TGFβ3, mature dimeric form; experiment: cell-based or functional assay; remark: listed apart in the source
[21] = target: T1, human TGFβ2, mature receptor-binding …; experiment: cell-based or functional assay; remark: listed apart in the source
[22] = target: T4, mouse TGFβ2, mature peptide; experiment: cell-based or functional assay

T3 sequence (P01137 279-390 limits assumed): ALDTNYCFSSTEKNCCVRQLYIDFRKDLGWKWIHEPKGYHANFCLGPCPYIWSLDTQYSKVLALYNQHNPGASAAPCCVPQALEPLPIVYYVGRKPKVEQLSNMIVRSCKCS

Kd [1]: < 0.01 nM | Kd [2]: < 0.01 nM | Kd [3]: 0.0016 nM | Kd [4]: ≤ 0.0012 nM | Kd [5]: > 5 nM | Kd [6]: 0.0016 nM | Kd [7]: ≤ 0.0012 nM | cell-based IC50 [8]: < 0.25 nM | cell-based IC50 [9]: < 0.25 nM | Kd [10]: 0.008 nM | Kd [11]: < 0.002 nM | HEKBlue TGFβ blocking IC50 [12]: > 200 nM | HEKBlue TGFβ blocking IC50 [13]: 0.09 nM | HEKBlue TGFβ blocking IC50 [14]: 0.06 nM | HEKBlue TGFβ blocking IC50 [15]: > 200 nM | HEKBlue TGFβ blocking IC50 [16]: 0.09 nM | HEKBlue TGFβ blocking IC50 [17]: 0.06 nM | HEKBlue TGFβ blocking IC50 [18]: > 200 nM | HEKBlue TGFβ blocking IC50 [19]: 0.09 nM | HEKBlue TGFβ blocking IC50 [20]: 0.06 nM | IC50 (read off the curve) [21]: ~0.06 nM | IC50 (read off the curve) [22]: ~0.07 nM
B1: 4A11 (antibody, V domains shown)
VH: QSLEESGGRLVTPGTPLTLTCTVSGFSLSSYTVNWVRQAPGKGLEWIGYISYGGSAYYASWANGRFTISKTSATVDLKITSPTTEDTATYFCARHMQVGGAPTGSMAAFDPWGPGTLVTVSS
VL: AAVLTQTPSPVSAAVGGTVSISCQSSQSVYNNNYLSWFQQKPGQPPKLLIYGASTLTSGVPSRFKGSGSGTQFTLTISDVQCDDAATYYCAGGYSGSSDKYAFGGGTEVVVKG
notes: anti-TGFβ2/3, recombinant rabbit monoclonal; some paragraphs print the H/L pair as 32/33; also called Rb1.4A11; Rbt 4A11
